Data reported in the supplement of paper PMC10567573.

B1: ATL3 (parent)
chain: FSFRYQQELEEEIKELYENFCKHN
B2: PDLIM4 (parent)
chain: FLDERLYCESHAKARVKPPEGYDV

Variants of: B1
Experiment: protein stability index of a GFP-peptide fusion (GPS, HEK-293T) (PSI 1-6); higher = more stable
Details: c terminus: a fixed tail appended
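Note: lentivirally expressed fusions sorted by FACS into six bins by GFP to DsRed ratio, PSI derived from sequencing read proportions per bin multiplied by bin number.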

Protein stability index of substitutions, site by site:
K22: V 1.99, W 1.35, H 2.04, T 3.02, N 2.54, D 2.42, R 2.12, C 2.06, M 2.24, P 1.97, S 2.33, G 2.58, Y 2.01, A 2.45, Q 2.93, I 2.23, E 2.41, L 2.77, F 2.08
C21: F 2.1, G 2.55, T 1.97, M 2.32, W 2.31, R 2.46, N 2.58, E 3.12, L 2.13, S 2.48, Y 1.77, K 2.66, D 3.33, P 2.11, A 3.33, V 2.62, I 2.05, Q 3.08, H 2.18
N24: H 2.64, D 2.49, K 2.48, M 2.49, F 3.38, E 1.93, R 2.42, G 2.36, A 2.37, C 2.77, I 2.82, S 2.14, Y 2.61, L 2.64, W 2.12, P 1.96, T 3.13, V 3.5
F20: N 2.61, Q 2.55, C 2.66, I 1.71, K 2.81, E 3.58, R 2.8, P 2.5, V 2.02, A 2.83, G 2.81, L 2.19, Y 2.38, H 2.73, T 2.41, S 3.01, M 2.17, W 1.9, D 2.62
H23: D 2.12, S 2.1, Y 2.49, M 2.49, W 2.14, F 2.19, T 3.04, A 2.25, C 1.84, G 2.04, K 3.21, L 2.73, I 2.43, E 2.63, N 2.3, P 1.6, R 1.86, Q 2.75
N19: T 1.99, W 1.73, Y 1.89, V 1.81

Variants of: B2
Experiment: as above
Details: c terminus: a fixed tail appended

Protein stability index of substitutions, site by site:
E9: Y 2.13, M 2.41, K 1.42, T 1.31, F 1.49, N 2.58, D 1.8, Q 1.44, A 1.57, W 1.22
S10: N 1.26, G 1.97, Q 1.88, V 1.4, M 2.54, Y 2.75, I 2.17, K 2.12, T 1.79, W 3.67, C 1.95, E 2.1, P 2.32, A 1.44, H 1.58
F1: C 3.43, Y 1.3, T 4.72, I 4.27, S 4.63, K 4.43, N 4.21, L 3.89, D 4.34, W 2.5, H 4.26, V 3.92
E4: S 5.15, R 3.33, C 3.33, L 2.34, V 2.06, D 1.71
D3: I 1.94, M 1.48, S 1.03, G 1.92, A 2.14, T 1.31, K 2.49, N 1.21, E 1.94, F 2.66, L 2.27, R 2.32, Q 1.53, C 3.79
P18: E 1.75, V 1.96, I 1.01, S 2.52, N 1.54, T 1.71, H 1.69, R 2.41, Q 2.38, A 2.82, G 1.75, D 1.36
Y7: P 4.5, I 3.6, C 3.66, S 3.89, D 4.71, V 3.85, H 4.05, E 4.06, F 2.79
V16: I 1.62, N 1.96, G 1.57, H 1.92, Q 1.22, W 2.7, Y 1.51, A 1.75, K 3.09
G21: K 1.63, P 1.8, Y 2.09, E 2.62, V 2.34, M 2.4, I 2.25, N 2.4, T 2.14, W 1.49, C 1.89
R5: L 1.98, S 2.37, F 1.52, V 2.35, N 1.49, E 2.42, W 3.09, A 1.86, D 2.11
L6: G 3.42, M 2.87, N 3.08, T 2.55, I 1.97, E 3.09, H 1.72, S 2.47
E20: N 2.28, L 1.1, H 2.82, R 2.7, I 2.65, Y 2.28, P 3.31, D 1.74, V 3, G 2.67, A 2.53
L2: G 3.4, C 1.96, I 1.38, M 1.67, N 3.48, Y 3.53, A 1.81, T 2.54, R 2.96, W 2.47, S 3.37, P 2.98, K 3.99
D23: S 2.85, F 1.73, I 1.81, C 1.65, N 2.3, T 2.03
V24: W 1.91, C 1.71, R 1.99, E 1.6, H 1.63, M 2.12, D 1.33, N 2.32, L 1.03, Q 1.11, P 2.53, Y 1.6, I 2.47
A14: G 2.7, Q 2.29, N 1.39, Y 2.23, S 2.01, I 2.02, L 1.75, M 1.76, D 1.36, R 2.57, K 1.07, H 2.56
C8: E 3.52, R 1.81, Y 2.17, V 2.28, W 2.14, D 3.78, G 3.41, A 1.53, Q 2.44
H11: A 1.85, N 1.86, M 2.23, C 1.04, Y 2.18, K 1.64
K17: D 1.27, Y 1.66, F 2.12, N 1.87, A 1.91, I 1.33, L 2.56, C 1.99, R 1.87
P19: S 1.11, K 2.31, D 2.15, T 2.29, M 1.77, F 1.93, L 2.26, N 1.21, Y 1.43
Y22: P 3.32, F 1.43, N 2.65, Q 2.55, A 1.32
A12: H 1.77, M 1.53, I 1.6, L 1.28, D 2.48, C 1.23, E 1.47, N 1.42, S 1.42, T 2.04, Q 1.37
R15: Q 2.41, Y 1.58, W 3.92, M 1.18, V 1.77, F 2.33, H 3.03, N 1.53, T 1.67, C 1.97, I 2.03, K 2.18, A 2.13
K13: H 2.18, C 1.21, I 2.71, N 1.36, G 1.72
